# Target: FcγRIIIa/CD16a 158V, His-tagged (human)
# Assay: BLI
# Chain of FcγRIIIa/CD16a 158V, His-tagged (human) (P08637 17-208): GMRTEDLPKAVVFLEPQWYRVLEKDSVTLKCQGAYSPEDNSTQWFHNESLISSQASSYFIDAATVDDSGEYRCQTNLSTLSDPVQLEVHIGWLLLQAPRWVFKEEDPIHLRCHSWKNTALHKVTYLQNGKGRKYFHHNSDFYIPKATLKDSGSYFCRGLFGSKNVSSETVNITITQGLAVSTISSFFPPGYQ
row,Kd [nM],Substance
1,15000,denosumab (as such; mean over the products) (antibody)

# Target: human neonatal Fc receptor (FcRn), His-tagged (human) (UniProt P55899)
# Assay: BLI
row,Kd [nM],Substance
1,17.7 to 38.5,"EU Prolia^® (denosumab reference drug product, EU-licensed) (antibody)"
2,19.7 to 29.2,"US Prolia^® (denosumab reference drug product, US-licensed) (antibody)"

# Further lines, the substance ahead of its results:
row,Substance,Kd [nM]
1,"EU Xgeva^® (denosumab reference drug product, EU-licensed) (antibody)",14.7 to 36.2
2,RGB-14-P (Gedeon Richter's proposed denosumab biosimilar to Prolia^®) (antibody),17.2 to 30.1
3,RGB-14-X (Gedeon Richter's proposed denosumab biosimilar to Xgeva^®) (antibody),21.6 to 27.2
4,"US Xgeva^® (denosumab reference drug product, US-licensed) (antibody)",18.1 to 33.5

# — paper PMC12354141
